Measured values reported in US6261814A, “Carboxylic acid reductase, and methods of using same” (University of Iowa Research Foundation, priority 1998, dated 2001).
Several values for one entry are separate records, joined by “and”; a condition that tells them apart may be missing. Equal values may be shown once. Entries after “also recorded” stand apart in the source; their conditions may differ.

Experiments:
[1] = biological target: T1, carboxylic acid reductase (Nocardia iowensis, UniProt Q6RKB1); test: 13C NMR study of benzoyl-AMP reduction by purified carboxylic acid reductase; type: biochemical, Nocardia sp. NRRL 5646; conditions: 1.4 mM benzoyl-AMP, 2.0 mM NADPH, 20 min. at 20° C.
T1 construct: isolated and substantially purified from Nocardia sp. strain NRRL 5646; endogenous in cells; host or cells: Nocardia sp; NRRL 5646, benzoate-induced culture; enzyme purified by Mono-Q, Reactive Green 19 agarose and hydroxyapatite chromatography
T1 sequence (Q6RKB1 whole entry): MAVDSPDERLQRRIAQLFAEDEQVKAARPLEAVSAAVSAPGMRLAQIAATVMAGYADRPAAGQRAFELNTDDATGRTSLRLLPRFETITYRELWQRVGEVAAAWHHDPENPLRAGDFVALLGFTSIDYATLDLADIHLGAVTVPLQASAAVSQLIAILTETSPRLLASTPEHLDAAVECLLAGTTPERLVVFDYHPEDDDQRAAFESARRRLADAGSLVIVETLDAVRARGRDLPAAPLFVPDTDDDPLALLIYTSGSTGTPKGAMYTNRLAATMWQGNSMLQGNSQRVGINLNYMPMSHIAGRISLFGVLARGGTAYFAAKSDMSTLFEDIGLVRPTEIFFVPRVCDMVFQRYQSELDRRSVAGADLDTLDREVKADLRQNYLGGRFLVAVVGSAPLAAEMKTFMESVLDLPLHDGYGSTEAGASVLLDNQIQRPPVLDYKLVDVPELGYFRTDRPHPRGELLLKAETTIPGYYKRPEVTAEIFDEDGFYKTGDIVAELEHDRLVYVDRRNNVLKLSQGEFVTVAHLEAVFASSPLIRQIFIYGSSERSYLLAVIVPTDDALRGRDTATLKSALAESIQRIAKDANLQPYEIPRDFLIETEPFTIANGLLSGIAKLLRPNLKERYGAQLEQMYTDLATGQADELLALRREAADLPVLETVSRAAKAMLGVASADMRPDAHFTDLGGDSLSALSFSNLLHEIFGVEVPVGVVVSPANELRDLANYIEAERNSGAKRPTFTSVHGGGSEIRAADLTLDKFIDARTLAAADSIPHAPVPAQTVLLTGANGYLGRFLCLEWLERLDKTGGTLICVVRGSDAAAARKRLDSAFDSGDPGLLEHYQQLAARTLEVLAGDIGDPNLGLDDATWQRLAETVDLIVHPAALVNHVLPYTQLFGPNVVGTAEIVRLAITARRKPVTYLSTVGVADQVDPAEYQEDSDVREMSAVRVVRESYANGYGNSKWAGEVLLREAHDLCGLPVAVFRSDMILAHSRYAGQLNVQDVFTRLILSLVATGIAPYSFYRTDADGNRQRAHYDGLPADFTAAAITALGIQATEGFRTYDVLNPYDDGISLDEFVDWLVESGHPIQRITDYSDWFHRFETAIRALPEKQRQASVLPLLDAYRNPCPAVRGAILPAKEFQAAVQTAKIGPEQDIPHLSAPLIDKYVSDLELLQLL
Method: Using carboxyl-^13 C labeled benzoyl-AMP, synthesized as described in Example 1, the reduction of benzoyl-AMP to benzaldehyde with the substantially purified carboxylic acid reductase from Nocardia sp. NRRL 5646 was investigated with ^13 C NMR spectroscopy (see, FIG. 1). The substantially purified carboxylic acid reductase from Nocardia sp. NRRL 5646 and all other reagents were prepared or obtained in Example 1.
A 10 μl sample (0.05 units) of the substantially purified carboxylic acid reductase was added to initiate the reaction. A control sample was prepared containing everything except the enzyme. After 20 min. incubation at 20° C., the samples were subjected to NMR analysis. For ^13 C NMR spectroscopy, […] D2 O was added as the locking solvent, and […] of dioxane was added as an internal standard (67.4 ppm). NMR spectra were obtained with a Bruker WM 360-MHZ high-field spectrometer equipped with an IBM Aspect-2000 processor.

[2] = biological target: T1, carboxylic acid reductase; test: Enzymatic reduction of vanillic acid to vanillin by purified carboxylic acid reductase; type: biochemical, Nocardia sp. NRRL 5646; conditions: with ATP and NADPH, purified enzyme
Method: The reaction mixture was incubated at 30° C. with gentle shaking for 24 hours, after which the entire reaction mixture was loaded onto a solid phase extraction cartridge (Chem Elut 1200, 200 ml aqueous solution capacity). After 5 min. of equilibration, the cartridge was washed with 2×100 ml of hexane, then washed again with 2×100 ml of dichloromethane (concentrated to less than 2 ml).
The extract was then transferred to a vial and the solvent was removed with a stream of nitrogen to give about 8 mg of the purified vanillin end product.
Mass spectrometry, ^1 H, and ^13 C NMR data confirmed that this compound was vanillin. The yield was determined to be 96% with UV spectrophotometric assay at 340 nm.

[3] = biological target: T1, carboxylic acid reductase; test: Rate of carboxylic acid reduction after o-benzylation of vanillic acid (unpublished data); type: biochemical, Nocardia sp. NRRL 5646; conditions: substrate concentration 5 mM
[4] = tested on: CC(C)Cc1ccc([C@@H](C)C(=O)O)cc1; test: purified protein, by the assay type; conditions: other: purified enzyme; mean of three determinations; pH 7.5; 25.0 °C
[5] = tested on: CC(C)Cc1ccc([C@H](C)C(=O)O)cc1; test: purified protein, by the assay type; conditions: other: purified enzyme; mean of three determinations; pH 7.5; 25.0 °C
[6] = tested on: Nc1ncnc2c1ncn2[C@@H]1O[C@H](COP(=O)(O)OP(=O)(O)OP(=O)(O)O)[C@@H](O)[C@H]1O; test: purified protein, by the assay type; conditions: other: purified enzyme; mean of three determinations; pH 7.5; 25.0 °C
[7] = tested on: NC(=O)C1=CN([C@@H]2O[C@H](COP(=O)(O)OP(=O)(O)OC[C@H]3O[C@@H](n4cnc5c(N)ncnc54)[C@H](OP(=O)(O)O)[C@@H]3O)[C@@H](O)[C@H]2O)C=CC1; test: purified protein, by the assay type; conditions: other: purified enzyme; mean of three determinations; pH 7.5; 25.0 °C
[8] = biological target: carboxylic acid reductase (aryl aldehyde oxidoreductase) (Nocardia iowensis, UniProt Q6RKB1); test: Standard aryl-aldehyde oxidoreductase assay: specific activity of the purified enzyme; type: biochemical, Nocardia sp. NRRL 5646; set-up: isolated and substantially purified from Nocardia sp. strain NRRL 5646; endogenous in cells; host or cells: Nocardia sp; NRRL 5646, benzoate-induced culture; enzyme purified by Mono-Q, Reactive Green 19 agarose and hydroxyapatite chromatography; conditions: after hydroxyapatite step
Sequence of carboxylic acid reductase (aryl aldehyde oxidoreductase) (Q6RKB1 whole entry): as above
Method: Enzyme assay. The standard aryl-aldehyde oxidoreductase assay solution contained 0.15 mM […], 1 mM ATP, and 5 mM sodium benzoate, 10 mM MgCl2 and 0.01 to 0.3 units of enzyme in 50 mM Tris-HCl buffer in a final volume of 0.7 ml. The reference cuvette contained all components except for benzoate. Enzyme reactions were initiated by adding enzyme, and they were monitored by recording the absorption decrease at 340 nm at 25° C. with a Shimadzu 160 spectrophotometer. One unit of the carboxylic acid reductase (aryl-aldehyde oxidoreductase) is defined as the amount of enzyme that catalyzes the reduction of 1 μmol benzoate to benzaldehyde per min. under standard assay conditions.
Protein assay. The concentration of protein was measured by the Bradford protein microassay (Bradford, Anal. Biochem. 72:248-254 (1976)), with bovine serum albumin as the standard.

[9] = Stability of the purified enzyme in buffer; type: physicochemical; conditions: 50 mM pH 7.5 Tris-HCl buffer, 10% glycerol, 8 hr at 4° C.
Method: Properties of the carboxylic acid reductase (aryl-aldehyde oxidoreductase).Inclusion of 10% glycerol in all chromatographic buffers was used to stabilize the enzyme. Nevertheless, the purified enzyme in 50 mM pH 7.5 Tris-HCl buffer, containing 10% glycerol, lost nearly […] of its activity in 8 hr at 4° C.

In the case of `Nc1ncnc2c1ncn2[C@@H]1O[C@H](COP(=O)(O)OC(=O)c2ccccc2)[C@@H](O)[C@H]1O` [benzoyl AMP], the “reduction of benzoyl-AMP to benzaldehyde” value [1] is reported as “completely reduced; also recorded: quantitatively reduced”.

With `COc1cc(C(=O)O)ccc1O` [vanillic acid, 4-hydroxy-3-methoxybenzoic acid] the “transformation from vanillic acid to vanillin” value [2] was “quantitative” and the “increase in the rate of carboxylic acid reduction as a result of o-benzylation” value [3] was “more than 15 fold”.

In the case of “carboxylic acid reductase (aryl-aldehyde oxidoreductase) (Nocardia iowensis)”, the Km [4] is reported as 34.5 µM, the Km [5] is reported as 155 µM and the Km [6] is reported as 57.3 µM and 29.3 ± 3.1 µM. For the same molecule, the Km [7] was 29.3 µM and 57.3 ± 12.5 µM.

B1: Purified carboxylic acid reductase: carboxylic acid reductase (aryl-aldehyde oxidoreductase) isolated and purified from Nocardia sp. strain NRRL 5646 (protein, UniProt Q6RKB1 2-1174, looked up)
Carboxylic acid reductase: AVDSPDERLQRRIAQLFAEDEQVKAARPLEAVSAAVSAPGMRLAQIAATVMAGYADRPAAGQRAFELNTDDATGRTSLRLLPRFETITYRELWQRVGEVAAAWHHDPENPLRAGDFVALLGFTSIDYATLDLADIHLGAVTVPLQASAAVSQLIAILTETSPRLLASTPEHLDAAVECLLAGTTPERLVVFDYHPEDDDQRAAFESARRRLADAGSLVIVETLDAVRARGRDLPAAPLFVPDTDDDPLALLIYTSGSTGTPKGAMYTNRLAATMWQGNSMLQGNSQRVGINLNYMPMSHIAGRISLFGVLARGGTAYFAAKSDMSTLFEDIGLVRPTEIFFVPRVCDMVFQRYQSELDRRSVAGADLDTLDREVKADLRQNYLGGRFLVAVVGSAPLAAEMKTFMESVLDLPLHDGYGSTEAGASVLLDNQIQRPPVLDYKLVDVPELGYFRTDRPHPRGELLLKAETTIPGYYKRPEVTAEIFDEDGFYKTGDIVAELEHDRLVYVDRRNNVLKLSQGEFVTVAHLEAVFASSPLIRQIFIYGSSERSYLLAVIVPTDDALRGRDTATLKSALAESIQRIAKDANLQPYEIPRDFLIETEPFTIANGLLSGIAKLLRPNLKERYGAQLEQMYTDLATGQADELLALRREAADLPVLETVSRAAKAMLGVASADMRPDAHFTDLGGDSLSALSFSNLLHEIFGVEVPVGVVVSPANELRDLANYIEAERNSGAKRPTFTSVHGGGSEIRAADLTLDKFIDARTLAAADSIPHAPVPAQTVLLTGANGYLGRFLCLEWLERLDKTGGTLICVVRGSDAAAARKRLDSAFDSGDPGLLEHYQQLAARTLEVLAGDIGDPNLGLDDATWQRLAETVDLIVHPAALVNHVLPYTQLFGPNVVGTAEIVRLAITARRKPVTYLSTVGVADQVDPAEYQEDSDVREMSAVRVVRESYANGYGNSKWAGEVLLREAHDLCGLPVAVFRSDMILAHSRYAGQLNVQDVFTRLILSLVATGIAPYSFYRTDADGNRQRAHYDGLPADFTAAAITALGIQATEGFRTYDVLNPYDDGISLDEFVDWLVESGHPIQRITDYSDWFHRFETAIRALPEKQRQASVLPLLDAYRNPCPAVRGAILPAKEFQAAVQTAKIGPEQDIPHLSAPLIDKYVSDLELLQLL
For B1, the specific activity [8] was 5.9 units/mg of protein and the loss of activity [9] was about 250%.
